Where a chain is given by its changes, count along the chain named.

By stoichiometry N is commonly meant the number of molecules, sites or subunits per partner or assembly.

The target in data set [1] is T1, TldD/E (purified TldD and TldE combined) (Escherichia coli, UniProt P0AGG8).
T1 construct: with Metalloprotease PmbA
T1 sequence (P0AGG8 1-481): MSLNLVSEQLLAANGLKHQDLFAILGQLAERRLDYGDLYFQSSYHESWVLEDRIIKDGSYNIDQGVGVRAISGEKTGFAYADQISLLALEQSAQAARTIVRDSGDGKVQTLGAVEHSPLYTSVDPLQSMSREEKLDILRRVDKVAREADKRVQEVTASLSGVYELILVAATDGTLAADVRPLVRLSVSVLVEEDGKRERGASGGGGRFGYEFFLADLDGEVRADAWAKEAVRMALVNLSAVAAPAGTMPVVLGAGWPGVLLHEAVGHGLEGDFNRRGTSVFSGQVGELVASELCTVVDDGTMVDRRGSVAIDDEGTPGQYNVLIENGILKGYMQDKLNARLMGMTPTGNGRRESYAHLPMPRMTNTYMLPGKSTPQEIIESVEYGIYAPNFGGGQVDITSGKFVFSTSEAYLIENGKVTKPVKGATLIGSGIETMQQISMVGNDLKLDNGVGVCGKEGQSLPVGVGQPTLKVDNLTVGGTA
T1 sequence (P0AFK0 1-450 partner): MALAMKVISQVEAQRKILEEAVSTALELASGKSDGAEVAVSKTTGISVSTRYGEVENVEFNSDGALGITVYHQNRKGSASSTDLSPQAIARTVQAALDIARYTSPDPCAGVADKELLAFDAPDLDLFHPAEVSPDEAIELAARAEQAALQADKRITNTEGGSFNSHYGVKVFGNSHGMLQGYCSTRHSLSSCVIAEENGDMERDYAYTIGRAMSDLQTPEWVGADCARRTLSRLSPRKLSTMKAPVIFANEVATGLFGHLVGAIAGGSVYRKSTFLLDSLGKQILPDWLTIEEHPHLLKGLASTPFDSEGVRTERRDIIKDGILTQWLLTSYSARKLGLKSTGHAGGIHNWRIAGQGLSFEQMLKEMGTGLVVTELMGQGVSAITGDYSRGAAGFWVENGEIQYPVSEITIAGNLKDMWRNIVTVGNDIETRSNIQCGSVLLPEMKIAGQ
The data set is described as follows: inhibition of angiotensin II hydrolysis. It is filed as biochemical. The conditions noted are these: substrate angiotensin II.

The target in data set [2] is N-terminally 6xHis-tagged E. coli TldD (pET28b, purified separately) (E. coli) (UniProt P0AGG8). The experiment in a line: AUC; sedimentation equilibrium, 0.2 mg/ml protein in 50 mM Tris-HCl pH 7.5, 100 mM NaCl, 10000 rpm, 20 C, single species model.
The target of data set [3] is T2, His-tagged E. coli TldD co-expressed with untagged TldE (pColA-Duet, MCS I) (E. coli, UniProt P0AGG8 1-481, Gly to Asp at position 401).
T2 construct: TldD of E. coli MG1655, cloned into MCS I of pColA-Duet (BamHI/HindIII); residues 2-481 seen in the crystals; Zn in the active site (grown with 50 uM ZnCl2 for crystals); also called TldD-His; His-tagged TldD; source: E. coli BL21 (DE3) Gold, co-overproduced with TldE
T2 sequence (looked up): T1 sequence (P0AGG8 1-481) with G401D
The experiment in a line: pull-down; Ni affinity chromatography of extracts of E. coli co-overproducing His-tagged TldD and untagged TldE; wash ~20 CV with 1 M NaCl, 50 mM imidazole, 0.1% Triton X-100; elution with 250 mM imidazole. To be noted: partners not purified.

The target of data set [4] is T3, E. coli TldD Glu263Ala mutant (subunit of the TldD^E263A/E complex) (E. coli, UniProt P0AGG8 1-481, E263A | Gly to Asp at position 401).
T3 construct: TldD of E. coli MG1655 with E263A; Gly401 to Asp was introduced into all the models; The methods say only that the mutants were made by overlap extension PCR and 'cloned and produced as described above'; also called Glu263Ala TldD mutant; source: E. coli, mutant protein complex with TldE
T3 sequence (looked up): T1 sequence (P0AGG8 1-481) with E263A, G401D
The experiment in a line: crystal structure; X-ray structures of the co-purified TldD/E heterodimer (wild type and TldD mutants), two heterodimers in the asymmetric unit; condition 1 (phosphate, PEG 3350) or condition 2 (PEG 1500, MMT pH 8.0), 20 C. The conditions noted are these: both partners purified.

Data set [5] addresses T4, E. coli TldD His262Ala mutant (subunit of the TldD^H262A/E complex) (E. coli, UniProt P0AGG8 1-481, H262A | Gly to Asp at position 401).
T4 construct: TldD of E. coli MG1655 with H262A; Gly401 to Asp was introduced into all the models; source: E. coli, mutant protein complex with TldE
T4 sequence (looked up): T1 sequence (P0AGG8 1-481) with H262A, G401D
The description is as above. To be noted: both partners purified.

Data set [6] deals with the molecule itself. The data set is described as follows: AUC; sedimentation equilibrium, 0.2 mg/ml protein in 50 mM Tris-HCl pH 7.5, 100 mM NaCl, 10000 rpm, 20 C, single species model.

`CCCCC[C@H](CC(=O)NO)C(=O)N[C@H](C(=O)N1CCC[C@H]1CO)C(C)C` [Actinonin]: the “inhibition of angiotensin II hydrolysis” value in data set [1] is “actinonin (deformylase inhibitor) efficiently prevented angiotensin II hydrolysis by TldD/E”. For the molecule “N-terminally 6xHis-tagged E. coli TldD (pET28b, purified separately) (from UniProt P0AGG8 1-481) (natural protein)”, the stoichiometry N in data set [2] is 2.

B1: untagged E. coli TldE co-expressed with His-tagged TldD (pColA-Duet, MCS II) (natural protein, UniProt P0AFK0 1-450, looked up)
chain: T1 sequence (P0AFK0 1-450 partner)
notes: TldE (PmbA) of E. coli MG1655, cloned into the second MCS of pColA-Duet (NdeI/XhoI), untagged; residues 6-450 seen in the crystals; also called PmbA; TldE subunit; source: E. coli BL21 (DE3) Gold, co-overproduced with His-tagged TldD
With B1, the binding result in data set [3], in data set [4] and in data set [5] was “binds” throughout.

B2: N-terminally 6xHis-tagged E. coli TldE (pET28b, purified separately) (natural protein, UniProt P0AFK0 1-450, looked up)
chain: T1 sequence (P0AFK0 1-450 partner)
notes: 50.5 kDa with the tag; also called His-TldE; PmbA; source: E. coli BL21 (DE3) Gold, purified (Ni-NTA)
B2: the “stoichiometry N” value in data set [6] was 2.

For the origin of these results see article PMC5810440, “The Origins of Specificity in the Microcin-Processing Protease TldD/E” (Structure(London, England:1993), 2017).
